{"source": "patent US7439329B2", "about": "“GEF-H1b: biomarkers, complexes assays and therapeutic uses thereof” (Sugen, Inc., priority 2002, dated 2008)", "key": {"PAK4": {"biological_target": "T1, PAK4 (Homo sapiens, UniProt O96013)", "T1 construct": "Glutathione-s-transferase (GST) fused PAK4 (residues 291-591); GST (N); made in house", "T1 sequence (O96013 291-591)": "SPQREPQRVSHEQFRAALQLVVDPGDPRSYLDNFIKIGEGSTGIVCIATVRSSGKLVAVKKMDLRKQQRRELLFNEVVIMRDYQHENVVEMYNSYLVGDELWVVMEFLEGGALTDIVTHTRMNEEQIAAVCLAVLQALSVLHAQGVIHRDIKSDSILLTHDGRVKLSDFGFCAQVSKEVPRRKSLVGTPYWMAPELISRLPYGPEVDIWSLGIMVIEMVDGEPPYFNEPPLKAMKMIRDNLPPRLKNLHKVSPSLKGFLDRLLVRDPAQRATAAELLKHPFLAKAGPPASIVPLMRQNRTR", "test": "In vitro kinase assay, phosphorylation of substrates by PAK4", "type": "biochemical", "settings": "autoradiography", "description": "Next examined, was whether GEF-H1 is a PAK4 substrate. In vitro kinase assays were performed using a GEF-H1 GST-fusion protein, a Maguin-2-like GST-fusion protein and GST control protein as substrates for phosphorylation by PAK4.\nThe cDNA encoding GEF-H1S obtained in the phage display screen was excised and subcloned into pGEX-4T expression vector to allow for recombinant production of protein for in vitro experiments. The GEF-H1S protein was then mixed with PAK4 kinase and incubated such that PAK4 phosphorylated the GEF-H1S. A portion of this kinase reaction was separated by SDS-PAGE and autoradiographed to visualize the extent of phosphorylation. […] SDS-PAGE is a universal protein separation and visualization technique that is described in Laemmli, Nature, 227(259):680-5, 1970.\nFrom the phosphorylation experiments described above, two peptides of GEF-H1S were identified as being targets for PAK4-induced phosphorylation. The GEF-H1S target residues were identified by aligning the PAK4 activation loop peptide with the GEF-H1S polypeptide sequence amino acids 762 to 921.\nThe following phosphoisomers (phosphate-modified GEF-H1S peptides) were used in PAK4 kinase assays to determine which residues were specifically phosphorylated. Because certain residues were modified to comprise a phosphate moiety (the underlined residues below), they could not be phosphorylated by PAK4.\nGlutathione-s-transferase (GST) fused PAK4 (residues 291-591), GEF-H1 amino acids 763-921 (from phage clone 13.8 sequence, matches KIAA0651) and Maguin 2-like (from phage clone 13.32, sequence matches accession # XP-087831) were purified by standard procedures and as previously described 31. Amino acid sequence of peptides spanning GEF-H1b 807-824 #1008 (RRRSLPAGDALYLpSFNPP) (SEQ ID NO: 28), #1009 (RRRpSLPAGDALYLSFNPP) (SEQ ID NO: 29), #1010 (RRRSLPAGDALpYLSFNPP ) (SEQ ID NO: 30) and #934 (RRRSLPAGDALYLSFNPP) (SEQ ID NO: 3) used for in vitro kinase assays. In vitro kinase reactions were run as described previously 31."}, "GEF-H1S": {"biological_target": "T2, GEF-H1S (Homo sapiens, UniProt Q92974, INS962GETLAETWTR)", "T2 sequence (Q92974 with tags, fused parts or gaps)": "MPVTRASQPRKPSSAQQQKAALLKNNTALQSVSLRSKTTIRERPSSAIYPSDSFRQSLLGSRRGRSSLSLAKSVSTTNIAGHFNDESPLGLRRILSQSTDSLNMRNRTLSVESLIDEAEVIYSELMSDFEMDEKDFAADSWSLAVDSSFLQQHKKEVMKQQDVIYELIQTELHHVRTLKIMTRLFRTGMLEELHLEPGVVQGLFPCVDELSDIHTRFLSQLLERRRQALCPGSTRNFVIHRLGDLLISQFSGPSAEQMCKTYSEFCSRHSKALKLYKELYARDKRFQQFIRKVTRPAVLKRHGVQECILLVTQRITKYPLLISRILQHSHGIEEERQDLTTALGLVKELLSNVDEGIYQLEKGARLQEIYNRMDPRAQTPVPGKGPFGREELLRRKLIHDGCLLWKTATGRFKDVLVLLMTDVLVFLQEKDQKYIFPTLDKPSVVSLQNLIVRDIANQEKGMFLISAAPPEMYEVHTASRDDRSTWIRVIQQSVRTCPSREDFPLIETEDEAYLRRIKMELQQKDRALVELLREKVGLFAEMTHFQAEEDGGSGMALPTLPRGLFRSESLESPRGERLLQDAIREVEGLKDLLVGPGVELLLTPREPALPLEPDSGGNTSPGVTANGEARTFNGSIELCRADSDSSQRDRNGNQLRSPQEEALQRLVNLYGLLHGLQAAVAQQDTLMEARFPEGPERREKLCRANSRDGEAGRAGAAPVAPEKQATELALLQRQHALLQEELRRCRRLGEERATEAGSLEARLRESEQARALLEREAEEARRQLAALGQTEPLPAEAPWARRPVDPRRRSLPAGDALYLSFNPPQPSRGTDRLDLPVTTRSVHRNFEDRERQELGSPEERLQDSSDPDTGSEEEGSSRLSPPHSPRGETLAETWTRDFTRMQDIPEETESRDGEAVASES", "test": "Pull-down of GEF-H1 with PAK4 domains and biotinylated PAK4 peptides", "type": "binding", "settings": "biotinylated PAK4 peptides linked to streptavidin beads", "description": "FIG. 1: (SEQ ID NOs 32-34 respectively in order of appearance) Direct binding of GEF-H1 to PAK4. Lysates were prepared from 293T cells over expressing (a) myc tagged PAK4 alleles or subdomains and incubated with GST, GST-GEF-H1 (787-921) and GST-Maguin-like bound to Glutathione beads (1,2,3,4 bead designation) or (b) GFP-GEF-H1 and incubated with PAK4 biotinylated peptides (291-355) and (276-324) linked to streptavidin beads. An equivalent amount of beads and excess lysates (500 ug) were used. Eluates of beads and total lysates were analysed by SDS-PAGE and immunoblotted with myc or GEF-H1 antiserum; (c) represents a PAK4 gene schematic outlining the regions of PAK4 used to identify the GEF-H1 interaction domain (GID). d, alignment of the GID defined by the minimal binding region of PAK4 with PAK5 and PAK6.\nTo confirm the in vitro interaction of GEF-H1S with PAK4, bacterially expressed GST-fusion proteins were generated with the identical sequences isolated by phage display, encoding either amino acids 763-921 of GEF-H1S or amino acids 385-555 from the Maguin-2-like protein. These fusion proteins were bound to glutathione beads and utilized in binding assays with 293T lysates expressing exogenous PAK4.\nBiotinylated peptides derived from the N-terminal region of PAK4 sequence were used to further map the GEF-H1 binding site. […]"}}}
{"sequence": "RRRSLPAGDALYLSFNPP [amino acids 807-824, GEF-H1S peptide surrounding Ser 810]", "values": [{"measurement": "phosphorylation by PAK4 in vitro", "setting": "PAK4", "value": "high affinity substrate"}]}
{"sequence": "RQSLLGSRRGRSSLSLAK [GEF-H1 residues 55-72]", "values": [{"measurement": "phosphorylation by PAK4 in vitro", "setting": "PAK4", "value": "phosphorylated"}]}
{"sequence": "PRRRSLPAGDALYLSFNPP", "values": [{"measurement": "phosphorylation by PAK4 in vitro", "setting": "PAK4", "value": "phosphorylated"}]}
{"sequence": "CTPAAPAVPAVPGPPGPRSPQREPQRVSHEQFRAALQLVVDPGDPRSYLDNF (biotin) [amino acids 276-324]", "values": [{"measurement": "interaction with GEF-H1S", "setting": "GEF-H1S", "value": "strong interaction"}]}
